Read-outs that look alike come from different tables or passages of the source.
Tests used:
Assay in all cases: single-molecule force spectroscopy
[1] = target: C5aR D282A mutant (human) (UniProt P21730)
[2] = target: C5a anaphylatoxin chemotactic receptor 1 (C5aR), wild type (human) (UniProt P21730)
[3] = target: C5aR R175V/Y258V double mutant (human) (UniProt P21730)
[4] = target: C5aR complexed with the PMX53 antagonist (free PMX53 injected) (human) (UniProt P21730)
[5] = target: C5aR complexed with the PMX53 antagonist (free PMX53 injected) (human) (UniProt P21730); remark: listed apart in the source

complement C5a anaphylatoxin, sequence (P01031 678-751): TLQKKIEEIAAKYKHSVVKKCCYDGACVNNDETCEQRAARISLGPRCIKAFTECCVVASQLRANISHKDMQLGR
C5aR complexed with the PMX53 antagonist (free PMX53 injected) (human), sequence (P21730 whole entry, looked up, one chain of several): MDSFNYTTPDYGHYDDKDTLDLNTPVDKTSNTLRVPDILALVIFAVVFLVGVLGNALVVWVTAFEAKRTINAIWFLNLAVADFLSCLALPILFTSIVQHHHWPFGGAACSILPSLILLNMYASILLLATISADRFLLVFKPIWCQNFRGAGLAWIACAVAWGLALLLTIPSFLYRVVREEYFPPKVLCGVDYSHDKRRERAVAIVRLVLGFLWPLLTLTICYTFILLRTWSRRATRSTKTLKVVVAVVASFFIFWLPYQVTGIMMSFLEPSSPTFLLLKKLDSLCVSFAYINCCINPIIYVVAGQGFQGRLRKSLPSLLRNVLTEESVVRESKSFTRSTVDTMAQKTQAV
C5a anaphylatoxin chemotactic receptor 1 (C5aR), wild type (human), sequence (P21730 whole entry): as the sequence (P21730 whole entry, looked up, one chain of several) above
C5aR R175V/Y258V double mutant (human), sequence (P21730 whole entry R175V/Y258V): as the sequence (P21730 whole entry, looked up, one chain of several) above, with R175V, Y258V counted along it
C5aR D282A mutant (human), sequence (P21730 whole entry D282A): as the sequence (P21730 whole entry, looked up, one chain of several) above, with D282A counted along it

Row | Substance | residence time [1] | Kd [2] | equilibrium force Feq [2] | reduction in residence time against C5aR WT [3] | Kd [4] | equilibrium force Feq [4] | residence time τ0.5 [4] | equilibrium force Feq [5]
1 | Cys-Gly3-Phe-[{Orn}-Pro-{D-Cha}-Trp-Arg] (PMX53-Gly3-Cys), PMX53 antagonist as tethered to the AFM tip (peptide) | 0.1 ms | 4.7 nM | 50 pN | 40% |  |  |  | 
2 | complement C5a anaphylatoxin (from UniProt P01031 678-751) (ligand) |  |  |  |  | 800 mM | 23 pN | 0.2 ms | 23 pN
3 | C5a des-Arg (ligand) |  |  |  |  |  |  | 0.5 ms | 

Reference: paper doi:10.1101/2020.04.03.024018
